According to the RNAGym collection of RNA variant scans (doi:10.7554/elife.90254):

B1: LINE1-full (parent)
chain: UACGUAGGUGGUUUUCCCCUGAUAGUGCUAAGGGGGCCUGGAAGUUUGGACUGGGCAGAGCUCAACACAGCGUGGCAAAGUGGCUGUGGCUAGACUGCCUCUCUGGAUUCCUCGUCACUCAGCAGGGCAUCUCUGAGAGAAAUGCC

Variants of: B1
Assay: self-cleavage, relative activity (ratio to wild type); higher = more cleavage; in vitro, sequencing; the parent is a self-cleaving ribozyme
UACGUAGGUGGUUUUCCCCUGAUAGUGCUAAGGGGGCCUGGAAGUUUGGACUGGGCAGAGCUCAACACAGCGUGGCAAAGUGGCUGUGGCUGGACUGCCUCUCUGGAUUCCUCGUCACUCAGCAGGGCACCUCUGAGAGAAAUGCC [A92G U130C] gave a self-cleavage of 0.11. In the case of UACGUAGGUGGUUUUCCCCUGAUAGUGCUAAGGGGGCCUGGAAGUUUGGACUGGGCAGAGCUCAACACAGCGUGGCAAAGUGGCUGUGGCUGGACUGCCUCUCUGGAUUCCUUGUCACUCAGCAGGGCAUCUCUGAGAGAAAUGCC [A92G C113U], the self-cleavage is reported as 0.1. UACGUAGGUGGUUUUCCCCUGAUAGUGCUAAGGGGGCCUGGAAGUUUGGACUGGGCAGAGCUCAACACAGCGUGGCAAAGUGGCUGUGGCUCGACUGCCUCUCUGGAUUCCUUGUCACUCAGCAGGGCAUCUCUGAGAGAAAUGCC [A92C C113U] gave a self-cleavage of 0.14. Variant UACGUAGGUGGUUUUCCCCUGAUAGUGCUAAGGGGGCCUGGAAGUUUGGACUGGGCAGAGCUCAACACAGCGUGGCAAAGUGGCUGUGGCUCGACUGCCUCUCUGGAUUCCUCGUCACUCAGCAGGGCAUCUCUGAGAGAAGUGCC [A92C A142G] has a self-cleavage of 0.33. UACGUAGGUGGUUUUCCCCUGAUAGUGCUAAGGGGGCCUGGAAGUUUGGACUGGGCAGAGCUCAACACAGCGUGGCAAAGUGGCUGUGGCUCGACUGCCUCUCUGGAUUCCUCGUCACUCAGCAGGGCAUCUCUGAGAGAAAUGCC [A92C] showed a self-cleavage of 0.13. Work on UACGUAGGUGGUUUUCCCCUGAUAGUGCUAAGGGGGCCUGGAAGUUUGGACUGGGCAGAGCUCAACACAGCGUGGCAAAGUGGCUGUGGCUGGACUGCCUCUCUGGAUUCCUCGUCACUCAGCAGGGCAUCUCUGAGAGAAAUGCC [A92G] yielded a self-cleavage of 0.1. In the case of UACGUAGGUGGUUUUCCCCUGAUAGUGCUAAGGGGGCCUGGAAGUUUGGACUGGGCAGAGCUCAACACAGCGUGGCAAAGUGGCUGUGGCUGGACUGCCUCUCUGGAUACCUCGUCACUCAGCAGGGCAUCUCUGAGAGAAAUGCC [A92G U109A], the self-cleavage is reported as 0.08. With UACGUAGGUGGUUUUCCCCUGAUAGUGCUAAGGGGGCCUGGAAGUUUGGACUGGGCAGAGCUCAACACAGCGUGGCAAAGUGGCUGUGGCUGGACUGCCUCUCUGGAUCCCUCGUCACUCAGCAGGGCAUCUCUGAGAGAAAUGCC [A92G U109C] the self-cleavage was 0.09. Variant UACGUAGGUGGUUUUCCCCUGAUAGUGCUAAGGGGGCCUGGAAGUUUGGACUGGGCAGAGCUCAACACAGCGUGGCAAAGUGGCUGUGGCUGGACUGCCUCUCUGGAUUCCUCAUCACUCAGCAGGGCAUCUCUGAGAGAAAUGCC [A92G G114A] has a self-cleavage of 0.1. In the case of UACGUAGGUGGUUUUCCCCUGAUAGUGCUAAGGGGGCCUGGAAGUUUGGACUGGGCAGAGCUCAACACAGCGUGGCAAAGUGGCUGUGGCUGGACUGCCUCUCAGGAUUCCUCGUCACUCAGCAGGGCAUCUCUGAGAGAAAUGCC [A92G U104A], the self-cleavage is reported as 0.06. Variant UACGUAGGUGGUUUUCCCCUGAUAGUGCUAAGGGGGCCUGGAAGUUUGGACUGGGCAGAGCUCAACACAGCGUGGCAAAGUGGCUGUGGCUGGACUGCCUCUCUGGAUUCCUCGCCACUCAGCAGGGCAUCUCUGAGAGAAAUGCC [A92G U115C] has a self-cleavage of 0.08. Work on UACGUAGGUGGUUUUCCCCUGAUAGUGCUAAGGGGGCCUGGAAGUUUGGACUGGGCAGAGCUCAACACAGCGUGGCAAAGUGGCUGUGGCUGGACUGCCUCUCUGGUUUCCUCGUCACUCAGCAGGGCAUCUCUGAGAGAAAUGCC [A92G A107U] yielded a self-cleavage of 0.09. For UACGUAGGUGGUUUUCCCCUGAUAGUGCUAAGGGGGCCUGGAAGUUUGGACUGGGCAGAGCUCAACACAGCGUGGCAAAGUGGCUGUGGCUGGACUCCCUCUCUGGAUUCCUCGUCACUCAGCAGGGCAUCUCUGAGAGAAAUGCC [A92G G97C], the self-cleavage was 0.06. UACGUAGGUGGUUUUCCCCUGAUAGUGCUAAGGGGGCCUGGAAGUUUGGACUGGGCAGAGCUCAACACAGCGUGGCAAAGUGGCUGUGGCUGGACUGCCUCUCUGGAUUCCUCGUCACUCAGCAGGGCAUCUCUGAUAGAAAUGCC [A92G G137U] gave a self-cleavage of 0.07. Variant UACGUAGGUGGUUUUCCCCUGAUAGUGCUAAGGGGGCCUGGAAGUUUGGACUGGGCAGAGCUCAACACAGCGUGGCAAAGUGGCUGUGGCUCGACUGCCUCUCAGGAUUCCUCGUCACUCAGCAGGGCAUCUCUGAGAGAAAUGCC [A92C U104A] has a self-cleavage of 0.38. UACGUAGGUGGUUUUCCCCUGAUAGUGCUAAGGGGGCCUGGAAGUUUGGACUGGGCAGAGCUCAACACAGCGUGGCAAAGUGGCUGUGGCUGGACUGCCUCUCUGGAUUCCUCGUCACUCAGCAGUGCAUCUCUGAGAGAAAUGCC [A92G G126U] gave a self-cleavage of 0.13. With UACGUAGGUGGUUUUCCCCUGAUAGUGCUAAGGGGGCCUGGAAGUUUGGACUGGGCAGAGCUCAACACAGCGUGGCAAAGUGGCUGUGGCUGGACUGCCUCUCUGGAUUCCUCGUCACUCAGCAGGGCAUCUCUGAGAGAGAUGCC [A92G A141G] the self-cleavage was 0.12. Work on UACGUAGGUGGUUUUCCCCUGAUAGUGCUAAGGGGGCCUGGAAGUUUGGACUGGGCAGAGCUCAACACAGCGUGGCAAAGUGGCUGUGGCUCGACUGCCUCUCUGGAUUCCUCGUCACUCAGCAGGGCAUCUCUGAGGGAAAUGCC [A92C A138G] yielded a self-cleavage of 0.14. Work on UACGUAGGUGGUUUUCCCCUGAUAGUGCUAAGGGGGCCUGGAAGUUUGGACUGGGCAGAGCUCAACACAGCGUGGCAAAGUGGCUGUGGCUGGACUGCCUCUCUGGAUUCCUCGUCACUCAGCAGGGCUUCUCUGAGAGAAAUGCC [A92G A129U] yielded a self-cleavage of 0.17. With UACGUAGGUGGUUUUCCCCUGAUAGUGCUAAGGGGGCCUGGAAGUUUGGACUGGGCAGAGCUCAACACAGCGUGGCAAAGUGGCUGUGGCUGGACUGCCUCUUUGGAUUCCUCGUCACUCAGCAGGGCAUCUCUGAGAGAAAUGCC [A92G C103U] the self-cleavage was 0.03. UACGUAGGUGGUUUUCCCCUGAUAGUGCUAAGGGGGCCUGGAAGUUUGGACUGGGCAGAGCUCAACACAGCGUGGCAAAGUGGCUGUGGCUGGUCUGCCUCUCUGGAUUCCUCGUCACUCAGCAGGGCAUCUCUGAGAGAAAUGCC [A92G A94U] gave a self-cleavage of 0.05. Variant UACGUAGGUGGUUUUCCCCUGAUAGUGCUAAGGGGGCCUGGAAGUUUGGACUGGGCAGAGCUCAACACAGCGUGGCAAAGUGGCUGUGGCUGGACUGCCUCUCUGGAUUCCUCGUCACUCAGCAGGGCAUCUCUGAGAGGAAUGCC [A92G A140G] has a self-cleavage of 0.15. Work on UACGUAGGUGGUUUUCCCCUGAUAGUGCUAAGGGGGCCUGGAAGUUUGGACUGGGCAGAGCUCAACACAGCGUGGCAAAGUGGCUGUGGCUGGACUGCCACUCUGGAUUCCUCGUCACUCAGCAGGGCAUCUCUGAGAGAAAUGCC [A92G U100A] yielded a self-cleavage of 0.13. With UACGUAGGUGGUUUUCCCCUGAUAGUGCUAAGGGGGCCUGGAAGUUUGGACUGGGCAGAGCUCAACACAGCGUGGCAAAGUGGCUGUGGCUCGACUGCCUCCCUGGAUUCCUCGUCACUCAGCAGGGCAUCUCUGAGAGAAAUGCC [A92C U102C] the self-cleavage was 0.14. UACGUAGGUGGUUUUCCCCUGAUAGUGCUAAGGGGGCCUGGAAGUUUGGACUGGGCAGAGCUCAACACAGCGUGGCAAAGUGGCUGUGGCUGGACUGCCUCUCUGGAUUCCUCGUCACCCAGCAGGGCAUCUCUGAGAGAAAUGCC [A92G U119C] showed a self-cleavage of 0.1. With UACGUAGGUGGUUUUCCCCUGAUAGUGCUAAGGGGGCCUGGAAGUUUGGACUGGGCAGAGCUCAACACAGCGUGGCAAAGUGGCUGUGGCUGGACUGCCUCUCUGGAUUCCUCGUCACUCAGCAGGACAUCUCUGAGAGAAAUGCC [A92G G127A] the self-cleavage was 0.12. UACGUAGGUGGUUUUCCCCUGAUAGUGCUAAGGGGGCCUGGAAGUUUGGACUGGGCAGAGCUCAACACAGCGUGGCAAAGUGGCUGUGGCUCGACUGCCUCUCUGGAUUCCUCGUCACUCUGCAGGGCAUCUCUGAGAGAAAUGCC [A92C A121U] showed a self-cleavage of 0.05. Variant UACGUAGGUGGUUUUCCCCUGAUAGUGCUAAGGGGGCCUGGAAGUUUGGACUGGGCAGAGCUCAACACAGCGUGGCAAAGUGGCUGUGGCUCGACUGCCUCUCUGGAUUCCUCGUCACUCAGCAGGGCAACUCUGAGAGAAAUGCC [A92C U130A] has a self-cleavage of 0.28. In the case of UACGUAGGUGGUUUUCCCCUGAUAGUGCUAAGGGGGCCUGGAAGUUUGGACUGGGCAGAGCUCAACACAGCGUGGCAAAGUGGCUGUGGCUCGACUGCCUCUCUGGAUUCCCCGUCACUCAGCAGGGCAUCUCUGAGAGAAAUGCC [A92C U112C], the self-cleavage is reported as 0.18. For UACGUAGGUGGUUUUCCCCUGAUAGUGCUAAGGGGGCCUGGAAGUUUGGACUGGGCAGAGCUCAACACAGCGUGGCAAAGUGGCUGUGGCUGGACUGCCUCUCUGGAUUCCUCGUCACUCAGCGGGGCAUCUCUGAGAGAAAUGCC [A92G A124G], the self-cleavage was 0.04. In the case of UACGUAGGUGGUUUUCCCCUGAUAGUGCUAAGGGGGCCUGGAAGUUUGGACUGGGCAGAGCUCAACACAGCGUGGCAAAGUGGCUGUGGCUGGACCGCCUCUCUGGAUUCCUCGUCACUCAGCAGGGCAUCUCUGAGAGAAAUGCC [A92G U96C], the self-cleavage is reported as 0.25. UACGUAGGUGGUUUUCCCCUGAUAGUGCUAAGGGGGCCUGGAAGUUUGGACUGGGCAGAGCUCAACACAGCGUGGCAAAGUGGCUGUGGCUGGACUGCCUCUCUGGAUUCCUCGUCAUUCAGCAGGGCAUCUCUGAGAGAAAUGCC [A92G C118U] gave a self-cleavage of 0.07. In the case of UACGUAGGUGGUUUUCCCCUGAUAGUGCUAAGGGGGCCUGGAAGUUUGGACUGGGCAGAGCUCAACACAGCGUGGCAAAGUGGCUGUGGCUGGACUGCCUCUCUGGAUUCCUCGUCACUCAACAGGGCAUCUCUGAGAGAAAUGCC [A92G G122A], the self-cleavage is reported as 0.13. With UACGUAGGUGGUUUUCCCCUGAUAGUGCUAAGGGGGCCUGGAAGUUUGGACUGGGCAGAGCUCAACACAGCGUGGCAAAGUGGCUGUGGCUGGACUGCCUCUCUGGAUUCCUCGUCACUCAGCAGGGCAUCUCUGAGAGAAAUGCU [A92G C146U] the self-cleavage was 0.07. UACGUAGGUGGUUUUCCCCUGAUAGUGCUAAGGGGGCCUGGAAGUUUGGACUGGGCAGAGCUCAACACAGCGUGGCAAAGUGGCUGUGGCUGGACUGCCUCUCUGGAUUCCUCGUCACUCAGCAGGGCAUCUCUGAGUGAAAUGCC [A92G A138U] showed a self-cleavage of 0.11. UACGUAGGUGGUUUUCCCCUGAUAGUGCUAAGGGGGCCUGGAAGUUUGGACUGGGCAGAGCUCAACACAGCGUGGCAAAGUGGCUGUGGCUGGACUGCCUCUCUGGAUUCCUCGUCACUCAGCAGGGAAUCUCUGAGAGAAAUGCC [A92G C128A] gave a self-cleavage of 0.04. For UACGUAGGUGGUUUUCCCCUGAUAGUGCUAAGGGGGCCUGGAAGUUUGGACUGGGCAGAGCUCAACACAGCGUGGCAAAGUGGCUGUGGCUGGACUGCCUCUCUGGAUUCCUCGUCACUCAGCAGGGUAUCUCUGAGAGAAAUGCC [A92G C128U], the self-cleavage was 0.03. With UACGUAGGUGGUUUUCCCCUGAUAGUGCUAAGGGGGCCUGGAAGUUUGGACUGGGCAGAGCUCAACACAGCGUGGCAAAGUGGCUGUGGCUGGACUGCCUCUCUGGAUUUCUCGUCACUCAGCAGGGCAUCUCUGAGAGAAAUGCC [A92G C110U] the self-cleavage was 0.05. In the case of UACGUAGGUGGUUUUCCCCUGAUAGUGCUAAGGGGGCCUGGAAGUUUGGACUGGGCAGAGCUCAACACAGCGUGGCAAAGUGGCUGUGGCUGGACUGCCUCUCUGGAUUCCUCGUCACUCAGCAGGGCAUCUUUGAGAGAAAUGCC [A92G C133U], the self-cleavage is reported as 0.02.
